In test [1] the target is H3K9me0 peptide. As to the kind of experiment: FP. The settings on record: complex.
Test [2] concerns the target G9a ANK-SET, N-terminally 6xHis-tagged (His:G9a) or N-terminally Maltose Binding Protein tagged (MBP:G9a) (human). In words: pull-down.
For test [3], the target named is fluoresceinated H3 1-20 K9me2 peptide (UniProt P68431). In words: fluorescence polarisation. In general terms: Fluorescence polarisation rises when a labelled molecule tumbles more slowly, as on binding a larger partner.
Test [4] concerns the target unmethylated (H3K9me0) mononucleosome. In words: fluorescence polarisation.
Test [5] concerns the target G9a ANK-SET, tag cleaved (human). As to the kind of experiment: SEC-MALS. A general note: In gel filtration, larger molecules generally elute earlier.

G9a ANK-SET homodimer, sequence (Q96KQ7 whole entry, looked up): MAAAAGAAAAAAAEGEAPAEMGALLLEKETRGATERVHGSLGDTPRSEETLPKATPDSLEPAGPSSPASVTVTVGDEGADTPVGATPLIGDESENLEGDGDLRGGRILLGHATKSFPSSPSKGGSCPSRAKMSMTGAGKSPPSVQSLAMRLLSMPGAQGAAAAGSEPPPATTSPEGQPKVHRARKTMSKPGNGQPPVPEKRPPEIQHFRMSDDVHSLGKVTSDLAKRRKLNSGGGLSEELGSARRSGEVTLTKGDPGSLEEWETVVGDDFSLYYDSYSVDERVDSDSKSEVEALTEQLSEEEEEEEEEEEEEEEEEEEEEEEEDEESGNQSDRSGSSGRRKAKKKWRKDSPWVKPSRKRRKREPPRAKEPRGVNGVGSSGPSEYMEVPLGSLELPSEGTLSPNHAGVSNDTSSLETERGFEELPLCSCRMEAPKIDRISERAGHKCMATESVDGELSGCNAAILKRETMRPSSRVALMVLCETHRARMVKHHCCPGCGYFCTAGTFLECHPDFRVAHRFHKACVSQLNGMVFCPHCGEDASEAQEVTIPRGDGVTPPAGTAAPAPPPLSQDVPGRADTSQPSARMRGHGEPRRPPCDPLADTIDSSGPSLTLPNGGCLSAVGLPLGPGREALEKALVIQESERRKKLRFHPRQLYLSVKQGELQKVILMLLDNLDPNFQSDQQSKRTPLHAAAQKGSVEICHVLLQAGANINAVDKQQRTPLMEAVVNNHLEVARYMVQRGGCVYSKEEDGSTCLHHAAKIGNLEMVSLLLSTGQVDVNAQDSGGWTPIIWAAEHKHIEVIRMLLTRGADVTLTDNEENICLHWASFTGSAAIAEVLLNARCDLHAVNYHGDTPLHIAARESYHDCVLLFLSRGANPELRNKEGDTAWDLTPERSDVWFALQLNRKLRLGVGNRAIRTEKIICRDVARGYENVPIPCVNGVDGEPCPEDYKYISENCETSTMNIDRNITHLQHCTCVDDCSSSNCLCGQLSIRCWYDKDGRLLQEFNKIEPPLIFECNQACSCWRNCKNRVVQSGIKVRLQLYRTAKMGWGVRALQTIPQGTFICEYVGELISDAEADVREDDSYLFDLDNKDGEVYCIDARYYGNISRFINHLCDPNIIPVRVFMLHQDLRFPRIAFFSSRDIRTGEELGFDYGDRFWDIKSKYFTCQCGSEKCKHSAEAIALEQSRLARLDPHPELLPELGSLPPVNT

Regarding “G9a ANK-SET homodimer (from UniProt Q96KQ7)”, the Kd (in general, the constant that tells how readily two partners part at equilibrium) in test [1] worked out at 100 µM.

For “G9a ANK-SET, N-terminally 6xHis-tagged (His:G9a) or N-terminally Maltose Binding Protein tagged (MBP:G9a) (domain or fragment)”, the stoichiometry N (commonly the number of molecules, sites or subunits per partner or assembly) in test [2] worked out at 2. With GLP ANK-SET homodimer (complex), the fold reduced binding in test [3] is 12.5 times. Moreover, the Kd in test [4] worked out at 26.3 µM. “GLP ANK-SET, N-terminally Maltose Binding Protein tagged (MBP:GLP) (domain or fragment)” had a stoichiometry N in test [2] of 1. In test [5], “GLP ANK-SET, tag cleaved (domain or fragment)” registered a stoichiometry N of 1.
